Where no end group is shown, it is not given here.
Target: T1, enhanced GFP-tagged guanylyl cyclase/natriuretic peptide receptor-A (eGFP–NPRA fusion protein) (mouse, UniProt P18293 29-1057)
T1 sequence (looked up): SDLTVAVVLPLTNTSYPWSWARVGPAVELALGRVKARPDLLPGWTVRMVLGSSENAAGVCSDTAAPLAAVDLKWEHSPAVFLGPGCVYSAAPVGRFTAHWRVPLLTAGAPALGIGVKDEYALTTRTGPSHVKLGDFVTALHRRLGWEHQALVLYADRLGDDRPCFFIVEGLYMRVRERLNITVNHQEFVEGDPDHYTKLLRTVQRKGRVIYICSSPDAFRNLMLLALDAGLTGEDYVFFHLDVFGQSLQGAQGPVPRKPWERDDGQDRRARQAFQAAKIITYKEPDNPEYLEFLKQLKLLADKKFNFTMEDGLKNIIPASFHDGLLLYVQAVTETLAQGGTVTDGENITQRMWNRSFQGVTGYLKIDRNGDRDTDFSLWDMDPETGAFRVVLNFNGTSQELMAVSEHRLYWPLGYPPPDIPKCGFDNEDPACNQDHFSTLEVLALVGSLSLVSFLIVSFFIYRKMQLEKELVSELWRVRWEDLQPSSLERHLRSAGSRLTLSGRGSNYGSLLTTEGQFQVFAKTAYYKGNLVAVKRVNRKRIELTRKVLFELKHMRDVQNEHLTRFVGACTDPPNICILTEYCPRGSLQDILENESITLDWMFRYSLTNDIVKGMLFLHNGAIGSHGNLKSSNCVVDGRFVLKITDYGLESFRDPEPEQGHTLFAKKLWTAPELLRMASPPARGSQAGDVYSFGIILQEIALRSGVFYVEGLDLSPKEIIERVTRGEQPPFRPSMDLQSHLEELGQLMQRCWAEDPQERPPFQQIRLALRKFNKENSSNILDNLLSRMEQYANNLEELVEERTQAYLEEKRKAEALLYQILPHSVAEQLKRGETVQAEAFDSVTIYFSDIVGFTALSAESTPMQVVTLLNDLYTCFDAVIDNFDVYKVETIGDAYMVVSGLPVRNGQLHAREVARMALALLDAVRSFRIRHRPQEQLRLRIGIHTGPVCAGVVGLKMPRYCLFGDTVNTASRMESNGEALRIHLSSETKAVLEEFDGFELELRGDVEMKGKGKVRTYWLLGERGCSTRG
Experiment: cell-based or functional assay

B1: Atrial natriuretic peptide (ANP), 125I-labelled (ligand, rat, UniProt P01161 123-150, looked up)
peptide: SLRRSSCFGGRIDRIGAQSGLGCNSFRY
modifications: ends and bridges not checked; also: 125I label (residue not given here)
  cGMP immunofluorescence intensity in intact cells treated with 100 nM ANP (unlabelled) for 1, 5, 10, 15 and 30 min, fold over untreated cells: 27 fold

Source: publication PMC4626869, “Subcellular trafficking of guanylyl cyclase/natriuretic peptide receptor-A with concurrent generation of intracellular cGMP” (Bioscience Reports, 2015)
